This is an account of results in IntAct's records for PubMed 29039417.

B1: Protein PTHB1 (Homo sapiens), Q3SYG4 (parent)
chain: MSLFKARDWWSTILGDKEEFDQGCLCLANVDNSGNGQDKIIVGSFMGYLRIFSPHPAKTGDGAQAEDLLLEVDLRDPVLQVEVGKFVSGTEMLHLAVLHSRKLCVYSVSGTLGNVEHGNQCQMKLMYEHNLQRTACNMTYGSFGGVKGRDLICIQSMDGMLMVFEQESYAFGRFLPGFLLPGPLAYSSRTDSFLTVSSCQQVESYKYQVLAFATDADKRQETEQQKLGSGKRLVVDWTLNIGEQALDICIVSFNQSASSVFVLGERNFFCLKDNGQIRFMKKLDWSPSCFLPYCSVSEGTINTLIGNHNNMLHIYQDVTLKWATQLPHIPVAVRVGCLHDLKGVIVTLSDDGHLQCSYLGTDPSLFQAPNVQSRELNYDELDVEMKELQKIIKDVNKSQGVWPMTEREDDLNVSVVVSPNFDSVSQATDVEVGTDLVPSVTVKVTLQNRVILQKAKLSVYVQPPLELTCDQFTFEFMTPDLTRTVSFSVYLKRSYTPSELEGNAVVSYSRPTDRNPDGIPRVIQCKFRLPLKLICLPGQPSKTASHKITIDTNKSPVSLLSLFPGFASQSDDDQVNVMGFHFLGGARITVLASKTSQRYRIQSEQFEDLWLITNELILRLQEYFEKQGVKDFACSFSGSIPLQEYFELIDHHFELRINGEKLEELLSERAVQFRAIQRRLLARFKDKTPAPLQHLDTLLDGTYKQVIALADAVEENQGNLFQSFTRLKSATHLVILLIALWQKLSADQVAILEAAFLPLQEDTQELGWEETVDAAISHLLKTCLSKSSKEQALNLNSQLNIPKDTSQLKKHITLLCDRLSKGGRLCLSTDAAAPQTMVMPGGCTTIPESDLEERSVEQDSTELFTNHRHLTAETPRPEVSPLQGVSE
partner: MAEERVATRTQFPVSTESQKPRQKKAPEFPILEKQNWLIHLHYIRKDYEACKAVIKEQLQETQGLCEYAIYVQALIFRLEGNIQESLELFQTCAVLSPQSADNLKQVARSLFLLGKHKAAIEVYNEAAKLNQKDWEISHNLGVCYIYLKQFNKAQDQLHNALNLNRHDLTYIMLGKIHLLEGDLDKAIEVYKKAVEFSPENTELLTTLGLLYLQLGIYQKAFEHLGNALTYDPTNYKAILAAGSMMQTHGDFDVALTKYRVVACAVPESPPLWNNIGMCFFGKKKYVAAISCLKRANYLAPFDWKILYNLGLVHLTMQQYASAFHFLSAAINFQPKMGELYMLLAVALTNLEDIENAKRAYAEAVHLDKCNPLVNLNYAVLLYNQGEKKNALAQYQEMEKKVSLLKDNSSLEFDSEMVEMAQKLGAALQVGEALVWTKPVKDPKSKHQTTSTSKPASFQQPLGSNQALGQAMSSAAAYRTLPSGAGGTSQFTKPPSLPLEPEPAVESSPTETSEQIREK

The variants in this assay derive from B1. The following applies: with bbs4_human BBS4, Q96RK4.
In the case of D631A, the “effect of a mutation on the interaction” value was “with no effect”.
Turning to S745K, the “effect of a mutation on the interaction” value is recorded as “with no effect”.
On to C535E, for which the “effect of a mutation on the interaction” value is on record as “with no effect”.
The same measure for D804A: “with no effect”.
As to D572A, the “effect of a mutation on the interaction” value is “with no effect”.
Take D410K: the “effect of a mutation on the interaction” value was “with no effect”.
The same measure for L559A: “with no effect”; for T595A: “with no effect”; for S488K: “with no effect”.
The same measure for G585K: “with no effect”.
The same measure for D573E: “with no effect”; for D573A: “with no effect”.
For V430A, the “effect of a mutation on the interaction” value was “with no effect”.
For the variant V430K, the “effect of a mutation on the interaction” value is on record as “with no effect”.
As for G718S, the “effect of a mutation on the interaction” value is on record as “disrupting interaction strength”.
Regarding P564S, the “effect of a mutation on the interaction” value was “disrupting interaction strength”.
T473A: the “effect of a mutation on the interaction” value was “with no effect”.
On to L560A, for which the “effect of a mutation on the interaction” value is on record as “with no effect”.
For S639K the value was “with no effect”; for L666A, “with no effect”; for P758E, “with no effect”.
For the variant L616P, the “effect of a mutation on the interaction” value is “disrupting interaction strength”.
As to L616K, the “effect of a mutation on the interaction” value is given as “with no effect”.
As to L727E, the “effect of a mutation on the interaction” value is “with no effect”.
Take Q574E: the “effect of a mutation on the interaction” value is recorded as “with no effect”.
Take T688A: the “effect of a mutation on the interaction” value was “with no effect”.
For Q807E, the “effect of a mutation on the interaction” value is on record as “with no effect”.
As for N576K, the “effect of a mutation on the interaction” value is recorded as “with no effect”.
Consider F582A, for which the “effect of a mutation on the interaction” value is listed as “with no effect”.
As to Q569R, the “effect of a mutation on the interaction” value is given as “disrupting interaction strength”.
Consider Q569K, for which the “effect of a mutation on the interaction” value is listed as “with no effect”.
For R679K, the “effect of a mutation on the interaction” value is “with no effect”.
For the variant S545E, the “effect of a mutation on the interaction” value was “with no effect”.
With D422E, the “effect of a mutation on the interaction” value is reported as “with no effect”.
Y495A: the “effect of a mutation on the interaction” value is recorded as “with no effect”.
For the variant L752A, the “effect of a mutation on the interaction” value is given as “with no effect”.
Take T482E: the “effect of a mutation on the interaction” value was “with no effect”.
On to T482K, for which the “effect of a mutation on the interaction” value is “with no effect”.
On to F487S, for which the “effect of a mutation on the interaction” value is “disrupting interaction strength”.
As to P691K, the “effect of a mutation on the interaction” value is on record as “with no effect”.
P691L: the “effect of a mutation on the interaction” value is listed as “disrupting interaction strength”.
The same measure for P691S: “disrupting interaction strength”; for P463T: “disrupting interaction strength”; for P463K: “with no effect”.
In the case of P463A, the “effect of a mutation on the interaction” value is “with no effect”.
The same measure for T763A: “with no effect”; for Q462K: “with no effect”.
For Q462E the value was “with no effect”.
With T445E, the “effect of a mutation on the interaction” value is reported as “with no effect”.
With T484A, the “effect of a mutation on the interaction” value is reported as “with no effect”.
The same measure for S603N: “disrupting interaction strength”; for Y623A: “with no effect”.
In the case of Y623E, the “effect of a mutation on the interaction” value is given as “with no effect”.
In the case of T771E, the “effect of a mutation on the interaction” value is “with no effect”.
Turning to F527A, the “effect of a mutation on the interaction” value is “with no effect”.
Consider S860K, for which the “effect of a mutation on the interaction” value is “with no effect”.
For F624K the value was “with no effect”; for F624A, “with no effect”; for D773K, “with no effect”.
For E853A the value was “with no effect”.
With R449K, the “effect of a mutation on the interaction” value is “with no effect”.
For R449A, the “effect of a mutation on the interaction” value is reported as “with no effect”.
The same measure for Q693K: “with no effect”; for P847A: “with no effect”.
For the variant E770A, the “effect of a mutation on the interaction” value is “disrupting interaction strength”.
For E770K the value was “with no effect”.
For the variant F580A, the “effect of a mutation on the interaction” value is given as “with no effect”.
Q426A: the “effect of a mutation on the interaction” value is recorded as “with no effect”.
Consider S425E, for which the “effect of a mutation on the interaction” value is listed as “with no effect”.
The same measure for S425K: “with no effect”.
For the variant L583A, the “effect of a mutation on the interaction” value is “with no effect”.
In the case of D608A, the “effect of a mutation on the interaction” value is reported as “with no effect”.
The same measure for V459A: “disrupting interaction strength”.
For K661E, the “effect of a mutation on the interaction” value was “with no effect”.
In the case of P520E, the “effect of a mutation on the interaction” value is “with no effect”.
G767K: the “effect of a mutation on the interaction” value was “with no effect”.
On to A682E, for which the “effect of a mutation on the interaction” value is “with no effect”.
Turning to D470E, the “effect of a mutation on the interaction” value is “with no effect”.
The same measure for K456A: “with no effect”.
The same measure for S667K: “with no effect”.
Regarding S886A, the “effect of a mutation on the interaction” value is recorded as “with no effect”.
For T731I the value was “disrupting interaction strength”; for F646E, “with no effect”.
Regarding A872K, the “effect of a mutation on the interaction” value is “with no effect”.
The same measure for L740A: “with no effect”; for K526A: “with no effect”; for R483A: “with no effect”.
On to R483K, for which the “effect of a mutation on the interaction” value is reported as “with no effect”.
